How the values were obtained:
p62 LIR (Homo sapiens) = p62 LIR (Homo sapiens) (UniProt Q13501); settings: cited from earlier work
[1] = molecular target: GST fusion of human OPTN (aa 2-311), Q96CV9-1; experiment: phage ELISA; settings: Background correction to BSA signal was applied; read off a plot

Sequence of GATE-16 (P60520 1-116): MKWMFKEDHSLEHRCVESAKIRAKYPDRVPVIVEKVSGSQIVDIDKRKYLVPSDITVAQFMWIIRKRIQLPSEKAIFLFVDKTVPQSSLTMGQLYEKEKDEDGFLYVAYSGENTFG

Substance | Kd (p62 LIR (Homo sapiens)) | response [1]
GATE-16 (from UniProt P60520) | 5.2 µM | 
LC3Bwt displayed on phage (from UniProt Q9GZQ8) F11L; R14L; R15N; Q19L; E22D; D23N; [26-28]I (column not resolved, see notes); K53I; K55G |  | 0.91 OD 450 nm

— article PMC7137635
